Source: article PMC10896696 (The Journal of Cell Biology, 2024)
Numbering of substitutions follows the chain as printed. Values belong to the binder of their own block, whether it stands above or below them.

Target: MBP-tag-fused HER2 intracellular domain (ICD, 712 aa-1255 aa) (human, UniProt P04626 712-1255)
Test: SPR

Kd: 4.24 nM
B1: MBP-tag-fused intracellular domain (ICD) of WT TβRI (148 aa-503 aa) (domain or fragment, human, UniProt P36897 148-503, looked up)
chain: CHNRTVIHHRVPNEEDPSLDRPFISEGTTLKDLIYDMTTSGSGSGLPLLVQRTIARTIVLQESIGKGRFGEVWRGKWRGEEVAVKIFSSREERSWFREAEIYQTVMLRHENILGFIAADNKDNGTWTQLWLVSDYHEHGSLFDYLNRYTVTVEGMIKLALSTASGLAHLHMEIVGTQGKPAIAHRDLKSKNILVKKNGTCCIADLGLAVRHDSATDTIDIAPNHRVGTKRYMAPEVLDDSINMKHFESFKRADIYAMGLVFWEIARRCSIGGIHEDYQLPYYDLVPSDPSVEEMRKVVCEQKLRPNIPNRWQSCEALRVMAKIMRECWYANGAARLTALRIKKTLSQLSQQEGIKM

Kd: 2.68 nM
B2: MBP-tag-fused intracellular domain (ICD) of activated (GGD) TβRI (148 aa-503 aa) (domain or fragment, human, UniProt P36897 148-503, looked up)
chain: B1 chain with L46G, P47G, T57D
